Experimental data: US20160272683A1 (Novo Nordisk, published 2016)
Numbered stars: 1 amine (or outer) side, 2 acyl side, 3 side chain; on linkers, the order of the positions; unused ones are H or OH. Side chains are listed from the residue outwards. Ends that are not written are not given here. * marks the point of attachment. C20 diacid = O=C(O)CCCCCCCCCCCCCCCCCCC(=O)*; C18 diacid = O=C(O)CCCCCCCCCCCCCCCCC(=O)*; C16 diacid = O=C(O)CCCCCCCCCCCCCCC(=O)*; γGlu = O=C(O)[C@H](CCC(=O)[*:2])N[*:1]; C14 diacid = O=C(O)CCCCCCCCCCCCC(=O)*; AEEA = NCCOCCOCC(=O)O

What was measured:
[1] = molecular target: rat calcitonin receptor (rat) (UniProt P32214); assay: SPA competition vs 125I-calcitonin, membranes with rat CTR (Assay VIII)
[2] = molecular target: rat amylin receptor (rat calcitonin receptor with rat RAMP 3) (rat) (UniProt P32214); assay: SPA competition vs 125I-rat amylin, membranes with rat CTR + rat RAMP3 (Assay VI)

Binder	IC50 [1]	IC50 [2]
{C20 diacid-γGlu}-ASGLSTAALGRLSQELHELQTYPRTETGSQTY-NH2 (SMILES CC(C)C[C@H](NC(=O)CNC(=O)[C@H](CO)NC(=O)[C@H](C)NC(=O)CC[C@H](NC(=O)CCCCCCCCCCCCCCCCCCC(=O)O)C(=O)O)C(=O)N[C@@H](CO)C(=O)N[C@H](C(=O)N[C@@H](C)C(=O)N[C@@H](C)C(=O)N[C@@H](CC(C)C)C(=O)NCC(=O)N[C@@H](CCCNC(=N)N)C(=O)N[C@@H](CC(C)C)C(=O)N[C@@H](CO)C(=O)N[C@@H](CCC(N)=O)C(=O)N[C@@H](CCC(=O)O)C(=O)N[C@@H](CC(C)C)C(=O)N[C@@H](Cc1c[nH]cn1)C(=O)N[C@@H](CCC(=O)O)C(=O)N[C@@H](CC(C)C)C(=O)N[C@@H](CCC(N)=O)C(=O)N[C@H](C(=O)N[C@@H](Cc1ccc(O)cc1)C(=O)N1CCC[C@H]1C(=O)N[C@@H](CCCNC(=N)N)C(=O)N[C@H](C(=O)N[C@@H](CCC(=O)O)C(=O)N[C@H](C(=O)NCC(=O)N[C@@H](CO)C(=O)N[C@@H](CCC(N)=O)C(=O)N[C@H](C(=O)N[C@@H](Cc1ccc(O)cc1)C(N)=O)[C@@H](C)O)[C@@H](C)O)[C@@H](C)O)[C@@H](C)O)[C@@H](C)O) [[N-terminal(C20 diacid-gGlu), des1, 4G, 15Q, 21Q, 23Y, 30S, 31Q, 32T, 33Y]mimylin]	0.012 nM	0.078 nM
{C18 diacid-γGlu}-ASGLSTAALGRLSQELHELQTYPRTETGSGTY-NH2 (SMILES CC(C)C[C@H](NC(=O)CNC(=O)[C@H](CO)NC(=O)[C@H](C)NC(=O)CC[C@H](NC(=O)CCCCCCCCCCCCCCCCC(=O)O)C(=O)O)C(=O)N[C@@H](CO)C(=O)N[C@H](C(=O)N[C@@H](C)C(=O)N[C@@H](C)C(=O)N[C@@H](CC(C)C)C(=O)NCC(=O)N[C@@H](CCCNC(=N)N)C(=O)N[C@@H](CC(C)C)C(=O)N[C@@H](CO)C(=O)N[C@@H](CCC(N)=O)C(=O)N[C@@H](CCC(=O)O)C(=O)N[C@@H](CC(C)C)C(=O)N[C@@H](Cc1c[nH]cn1)C(=O)N[C@@H](CCC(=O)O)C(=O)N[C@@H](CC(C)C)C(=O)N[C@@H](CCC(N)=O)C(=O)N[C@H](C(=O)N[C@@H](Cc1ccc(O)cc1)C(=O)N1CCC[C@H]1C(=O)N[C@@H](CCCNC(=N)N)C(=O)N[C@H](C(=O)N[C@@H](CCC(=O)O)C(=O)N[C@H](C(=O)NCC(=O)N[C@@H](CO)C(=O)NCC(=O)N[C@H](C(=O)N[C@@H](Cc1ccc(O)cc1)C(N)=O)[C@@H](C)O)[C@@H](C)O)[C@@H](C)O)[C@@H](C)O)[C@@H](C)O) [[N-terminal(C18 diacid-gGlu), des1, 4G, 15Q, 21Q, 23Y, 30S, 31G, 32T, 33Y]mimylin]	0.013 nM	0.013 nM
{C20 diacid-γGlu-AEEA}-ASELSTAALGRLSAELHELATLPRTETGSGSP-NH2 [[N-terminal(C20 diacid-gGlu-OEG), des1, 30S, 31G]mimylin]	0.044 nM	0.146 nM
{C20 diacid-γGlu}-ASGLSTAVLGRLSQELHELQTYPRTETGSQTY-NH2 (SMILES CC(C)C[C@H](NC(=O)CNC(=O)[C@H](CO)NC(=O)[C@H](C)NC(=O)CC[C@H](NC(=O)CCCCCCCCCCCCCCCCCCC(=O)O)C(=O)O)C(=O)N[C@@H](CO)C(=O)N[C@H](C(=O)N[C@@H](C)C(=O)N[C@H](C(=O)N[C@@H](CC(C)C)C(=O)NCC(=O)N[C@@H](CCCNC(=N)N)C(=O)N[C@@H](CC(C)C)C(=O)N[C@@H](CO)C(=O)N[C@@H](CCC(N)=O)C(=O)N[C@@H](CCC(=O)O)C(=O)N[C@@H](CC(C)C)C(=O)N[C@@H](Cc1c[nH]cn1)C(=O)N[C@@H](CCC(=O)O)C(=O)N[C@@H](CC(C)C)C(=O)N[C@@H](CCC(N)=O)C(=O)N[C@H](C(=O)N[C@@H](Cc1ccc(O)cc1)C(=O)N1CCC[C@H]1C(=O)N[C@@H](CCCNC(=N)N)C(=O)N[C@H](C(=O)N[C@@H](CCC(=O)O)C(=O)N[C@H](C(=O)NCC(=O)N[C@@H](CO)C(=O)N[C@@H](CCC(N)=O)C(=O)N[C@H](C(=O)N[C@@H](Cc1ccc(O)cc1)C(N)=O)[C@@H](C)O)[C@@H](C)O)[C@@H](C)O)[C@@H](C)O)C(C)C)[C@@H](C)O) [[N-terminal(C20 diacid-gGlu), des1, 4G, 9V, 15Q, 21Q, 23Y, 30S, 31Q, 32T, 33Y]mimylin]	0.016 nM	0.053 nM
{C20 diacid-γGlu}-ASGLSTAVLGKLSQELHELQTYPPTETGSGTY-NH2 (SMILES CC(C)C[C@H](NC(=O)CNC(=O)[C@H](CO)NC(=O)[C@H](C)NC(=O)CC[C@H](NC(=O)CCCCCCCCCCCCCCCCCCC(=O)O)C(=O)O)C(=O)N[C@@H](CO)C(=O)N[C@H](C(=O)N[C@@H](C)C(=O)N[C@H](C(=O)N[C@@H](CC(C)C)C(=O)NCC(=O)N[C@@H](CCCCN)C(=O)N[C@@H](CC(C)C)C(=O)N[C@@H](CO)C(=O)N[C@@H](CCC(N)=O)C(=O)N[C@@H](CCC(=O)O)C(=O)N[C@@H](CC(C)C)C(=O)N[C@@H](Cc1c[nH]cn1)C(=O)N[C@@H](CCC(=O)O)C(=O)N[C@@H](CC(C)C)C(=O)N[C@@H](CCC(N)=O)C(=O)N[C@H](C(=O)N[C@@H](Cc1ccc(O)cc1)C(=O)N1CCC[C@H]1C(=O)N1CCC[C@H]1C(=O)N[C@H](C(=O)N[C@@H](CCC(=O)O)C(=O)N[C@H](C(=O)NCC(=O)N[C@@H](CO)C(=O)NCC(=O)N[C@H](C(=O)N[C@@H](Cc1ccc(O)cc1)C(N)=O)[C@@H](C)O)[C@@H](C)O)[C@@H](C)O)[C@@H](C)O)C(C)C)[C@@H](C)O) [[N-terminal(C20 diacid-gGlu), des1, 4G, 9V, 12K, 15Q, 21Q, 23Y, 25P, 30S, 31G, 32T, 33Y]mimylin]	0.246 nM	0.385 nM
{C16 diacid-γGlu}-ASELSTAALGRLSAELHELATLPRTETGSGSP-NH2 [[N-terminal(C16 diacid-gGlu), des1, 30S, 31G]mimylin]	0.013 nM	0.022 nM
{C18 diacid}-ASELSTAALGRLSAELHELATLPRTETGSGSP-NH2 [[N-terminal(C18 diacid), des1, 30S, 31G]mimylin]	0.013 nM	0.063 nM
{C16 diacid}-ASELSTAALGRLSAELHELATLPRTETGSGSP-NH2 [[N-terminal(C16 diacid), des1, 30S, 31G]mimylin]	0.011 nM	0.064 nM
{C14 diacid-γGlu}-ASELSTAALGRLSAELHELATLPRTETGSGSP-NH2 [[N-terminal(C14 diacid-gGlu), des1, 30S, 31G]mimylin]	0.017 nM	0.122 nM
ASELSTAALGRLSAK([γGlu-C20 diacid])LHELATLPRTETGSGSP-NH2 (N-terminus assumed; SMILES CC(C)C[C@H](NC(=O)[C@H](C)NC(=O)[C@H](C)NC(=O)[C@@H](NC(=O)[C@H](CO)NC(=O)[C@H](CC(C)C)NC(=O)[C@H](CCC(=O)O)NC(=O)[C@H](CO)NC(=O)[C@H](C)N)[C@@H](C)O)C(=O)NCC(=O)N[C@@H](CCCNC(=N)N)C(=O)N[C@@H](CC(C)C)C(=O)N[C@@H](CO)C(=O)N[C@@H](C)C(=O)N[C@@H](CCCCNC(=O)CC[C@H](NC(=O)CCCCCCCCCCCCCCCCCCC(=O)O)C(=O)O)C(=O)N[C@@H](CC(C)C)C(=O)N[C@@H](Cc1c[nH]cn1)C(=O)N[C@@H](CCC(=O)O)C(=O)N[C@@H](CC(C)C)C(=O)N[C@@H](C)C(=O)N[C@H](C(=O)N[C@@H](CC(C)C)C(=O)N1CCC[C@H]1C(=O)N[C@@H](CCCNC(=N)N)C(=O)N[C@H](C(=O)N[C@@H](CCC(=O)O)C(=O)N[C@H](C(=O)NCC(=O)N[C@@H](CO)C(=O)NCC(=O)N[C@@H](CO)C(=O)N1CCC[C@H]1C(N)=O)[C@@H](C)O)[C@@H](C)O)[C@@H](C)O) [[des1, 16K(C20 diacid-gGlu), 30S, 31G]mimylin]	0.065 nM	1.3 nM
ASELSTAALGRLSAELHK([γGlu-C20 diacid])LATLPRTETGSGSP-NH2 (N-terminus assumed; SMILES CC(C)C[C@H](NC(=O)[C@H](C)NC(=O)[C@H](C)NC(=O)[C@@H](NC(=O)[C@H](CO)NC(=O)[C@H](CC(C)C)NC(=O)[C@H](CCC(=O)O)NC(=O)[C@H](CO)NC(=O)[C@H](C)N)[C@@H](C)O)C(=O)NCC(=O)N[C@@H](CCCNC(=N)N)C(=O)N[C@@H](CC(C)C)C(=O)N[C@@H](CO)C(=O)N[C@@H](C)C(=O)N[C@@H](CCC(=O)O)C(=O)N[C@@H](CC(C)C)C(=O)N[C@@H](Cc1c[nH]cn1)C(=O)N[C@@H](CCCCNC(=O)CC[C@H](NC(=O)CCCCCCCCCCCCCCCCCCC(=O)O)C(=O)O)C(=O)N[C@@H](CC(C)C)C(=O)N[C@@H](C)C(=O)N[C@H](C(=O)N[C@@H](CC(C)C)C(=O)N1CCC[C@H]1C(=O)N[C@@H](CCCNC(=N)N)C(=O)N[C@H](C(=O)N[C@@H](CCC(=O)O)C(=O)N[C@H](C(=O)NCC(=O)N[C@@H](CO)C(=O)NCC(=O)N[C@@H](CO)C(=O)N1CCC[C@H]1C(N)=O)[C@@H](C)O)[C@@H](C)O)[C@@H](C)O) [[des1, 19K(C20 diacid-gGlu), 30S, 31G]mimylin]	0.044 nM	0.455 nM
{C20 diacid-γGlu}-ASELSTAALGRLSAELHELATLPRTETGSGSY-NH2 (SMILES CC(C)C[C@H](NC(=O)[C@H](C)NC(=O)[C@H](C)NC(=O)[C@@H](NC(=O)[C@H](CO)NC(=O)[C@H](CC(C)C)NC(=O)[C@H](CCC(=O)O)NC(=O)[C@H](CO)NC(=O)[C@H](C)NC(=O)CC[C@H](NC(=O)CCCCCCCCCCCCCCCCCCC(=O)O)C(=O)O)[C@@H](C)O)C(=O)NCC(=O)N[C@@H](CCCNC(=N)N)C(=O)N[C@@H](CC(C)C)C(=O)N[C@@H](CO)C(=O)N[C@@H](C)C(=O)N[C@@H](CCC(=O)O)C(=O)N[C@@H](CC(C)C)C(=O)N[C@@H](Cc1c[nH]cn1)C(=O)N[C@@H](CCC(=O)O)C(=O)N[C@@H](CC(C)C)C(=O)N[C@@H](C)C(=O)N[C@H](C(=O)N[C@@H](CC(C)C)C(=O)N1CCC[C@H]1C(=O)N[C@@H](CCCNC(=N)N)C(=O)N[C@H](C(=O)N[C@@H](CCC(=O)O)C(=O)N[C@H](C(=O)NCC(=O)N[C@@H](CO)C(=O)NCC(=O)N[C@@H](CO)C(=O)N[C@@H](Cc1ccc(O)cc1)C(N)=O)[C@@H](C)O)[C@@H](C)O)[C@@H](C)O) [[N-terminal(C20 diacid-gGlu), des1, 30S, 31G, 33Y]mimylin]	0.023 nM	0.029 nM
